# T1: human MCP-2 (human, UniProt P80075 24-99)
# T1 construct: also called hMCP-2; huMCP-2
# T1 sequence (looked up): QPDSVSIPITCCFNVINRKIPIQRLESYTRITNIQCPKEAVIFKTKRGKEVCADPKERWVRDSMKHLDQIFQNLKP
# B1: Fab fragment of murine 11K2 (Fab, V domains shown)
# VH: EVQLQQSGAELVKAGASVKLSCPASGLNIKDTYMHWVKQRPEQGLEWIGRIDPANGNTKFDPKFQGKATITADTSSNTAYLQLSSLTSEDTAVYYCARGVFGFFDYWGQGTTLTVSS
# VL: DIQMTQSSSSFSVSLGDRVTITCKATEDIYNRLAWYQQKPGSAPRLLISGATSLETGVPSRFSGSGSGKDYTLSITSLQTEDVATYYCQQFWSAPYTFGGGTKLEIK
# notes: also called 11K2 Fab; mu11K2 Fab
# B2: Fab fragment of murine 1A1 (Fab, V domains shown)
# VH: EVQLQQSGAELVRSGASVKLSCTASGFNIKDNYMHWVKQRPEQGLEWIGWIDPENGDTEYAPKFQGKATMTADTSSNTAYLQLSSLTSEDTAVYYCNTWAYYGTSYGGFAYWGQGTTVTVSS
# VL: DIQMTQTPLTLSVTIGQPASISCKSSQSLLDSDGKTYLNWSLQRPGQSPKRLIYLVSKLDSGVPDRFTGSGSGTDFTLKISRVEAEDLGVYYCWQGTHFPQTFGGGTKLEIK
# notes: also called 1A1 Fab
# Columns and labels:
# human MCP-2 [1] = molecular target: T1, human MCP-2; assay: KinExA, in solution, Fab
# Description: (§1) 1 ml of MCP-1 at a concentration of 10 μg/ml in NaHCO₃ was added to an amount of beads equivalent to 1 ml of the original slurry. The beads were rocked overnight at 4° C. Beads were spun down and washed once with 1M Tris, pH 8.0, then resuspended in 1M Tris pH 8.0 with 1% BSA, 0.02% azide. The beads were rocked at room temperature for one hour then stored at 4° C. in this buffer for the duration of the experiments.
# (§2) The KinExA 3000 measures protein-protein interaction in solution, and is ideally suited for measuring affinities of antibodies to antigens. In the typical experiment, antigen (MCP) is immobilized on a bead, antibody is flowed over a column of these beads at a given concentration, and the antibody that binds to the beads is detected using a fluorescent secondary. Antibody at a fixed concentration is then incubated with different concentrations of antigen in solution and the amount of free antibody is measured by flowing the mixture over the bead column quickly enough that no re-equilibration occurs between solution and solid phase. The amount of antibody remaining free is plotted against the concentration of antigen added and the data are fit to a quadratic equation to determine the affinity of the interaction in solution.
# (§3) In these experiments, the only difference to the typical experiment described above is that instead of using intact antibody, a Fab fragment of 11K2 was used. Earlier KimExA experiments using the intact murine 11K2 mAb binding to MCP-1 and MCP-2 gave biphasic curves that the software could not interpret. This may be due to these proteins acting as dimers, so to eliminate the dimer/dimer interaction we generated Fab fragments. The binding of the 11K2 Fab fragments to MCP-1 and MCP-2 produced curves that the KinExA software could fit.
# human MCP-1 [2] = molecular target: T2, human MCP-1 (human, UniProt P13500 24-99); assay: KinExA, in solution
# T2 construct: also called hMCP-1; huMCP-1
# Description: (§4) Polymethylmethacrylate beads activated with NHS were coated with 10 μg recombinant human MCP-1 in 1 ml buffer. The beads were packed into a column in the KinExA instrument for each sample. This packed bead column is able to capture free MCP mAb or Fab flowed through the column. The amount of free mAb or Fab in solution was determined using a secondary goat anti-mouse heavy and light chain IgG-Cy5 conjugate.
# (§5) A fixed amount of 11K2 mAb, 1A1 mAb, 11K2 Fab, or 1A1 Fab was incubated with various amounts of human MCP-1, MCP-2 or MCP-3 for three hours. The amount of uncomplexed free antibody remaining in solution was determined by flowing these mixtures over the MCP-1-loaded bead column and labeling with the Cy5 secondary antibody. The fluorescent signal was plotted against the MCP concentration and the affinity was determined using a quadratic curve fit
# human MCP-2 [3] = molecular target: T1, human MCP-2; assay: KinExA, in solution
# Description: as §4, §5
# human MCP-1 [4] = molecular target: T2, human MCP-1; assay: KinExA, in solution, Fab; Fab, not intact mAb
# Description: as §1
# as §2, with “solution. […]” for “solution.”
# human MCP-2 [5] = molecular target: T1, human MCP-2; assay: KinExA, in solution; Fab, not intact mAb
# human MCP-1 [6] = molecular target: T2, human MCP-1; assay: KinExA, in solution, Fab
# Description: as §1, §2, §3
Binder,Kd (human MCP-2 [1]),Kd (human MCP-1 [2]),Kd (human MCP-2 [3]),Kd (human MCP-1 [4]),Kd (human MCP-2 [5]),Kd (human MCP-1 [6])
B1,0.43 nM,0.011 nM,0.43 nM,0.011 nM,–,–
B2,0.32 nM,0.013 nM,–,–,0.32 nM,0.0129 nM

# — patent publication US20070134236A1 (Biogen, published 2007)
